# Results published in PMC7041945, “Misfolded proteins bind and activate death receptor 5 to trigger apoptosis during unresolved endoplasmic reticulum stress” (eLife, 2020).
# Key:
# [1] = system: GADD34 mRNA in HCT116 cells; assay: qPCR of GADD34 transcript; assay type: cell-based, Homo sapiens; details: norm to GAPDH
# DR5 = assay: GFP immunoprecipitation: DR5 (FADD, caspase 8) recovered with GFP-tagged protein, Western blot; assay type: cell-based, Homo sapiens; details: for fraction of DR5 IP'ed: GFP IP
# Procedure: 15 cm dishes were seeded with 4 million HCT116 cells and allowed to recover for 18 hr prior to transfection. Samples were then transfected for 24 hr with the GFP-tagged ER trafficked protein, cytosolic GFP, or empty vector. To harvest apoptotic and living cells for each sample, all media and washes were collected. Cells were scraped in 2 ml of cold PBS and combined with the media and washes. Samples were centrifuged to pellet cells, washed with 1 ml cold PBS, and flash frozen in liquid N2 prior to lysis.
# The cell pellets were resuspended in 750 μl of 30 mM HEPES pH 7.2, 150 mM NaCl, 1% Triton X-100 with 1x Roche protease inhibitor cocktail (if used subsequently for caspase glo 8 assay) or with 5x Roche protease inhibitor cocktail (if used for immunoblotting). The cells were lysed by mechanical shearing through a 25G needle for 13–15 plunges followed by incubation on ice for 30 min. The lysate was centrifuged at 2000xg for 5 min to remove debris and then incubated with 30 μl of GFP-Trap magnetic agarose beads (Chromotek gtma-20) for 4 hr at 4°C. The beads were then washed with 750 μl of lysis buffer for 10 min at 4°C for three rounds.
# For Western blots, samples were eluted by adding 35 μl of non-reducing SDS gel loading buffer (50 mM Tris-HCl (pH 6.8), 2% SDS, 0.1% bromophenol blue, 10% glycerol) and incubated for 10 min at 70°C. The beads were then magnetically removed from the eluted sample before adding DTT to a final concentration of 25 mM. The entire sample was loaded onto the gel and immunoblotted for DR5, caspase 8, and GFP, in that order.
molecule,measurement,setting,value
"pRK CHOP (protein, UniProt P35638 1-169, looked up, expression plasmid) DNA damage-inducible …: MAAESLPFSFGTLSSWELEAWYEDLQEVLSSDENGGTYVSPPGNEEEESKIFTTLDPASLAWLTEEEPEPAEVTSTSQSPHSPDSSQSSLAQEEEEEDQGRTRKRKQSGHSPARAGKQRMKEKEQENERKVAQLAEENERLKQEIERLTREVEATRRALIDRMVNLHQA","avg. fold induction, GADD34","[1]; HCT116, 62 ng",1.117
same,"avg. fold induction, GADD34","[1]; HCT116, 125 ng",1.442
same,"avg. fold induction, GADD34","[1]; HCT116, 250 ng",1.579
same,"avg. fold induction, GADD34","[1]; HCT116, 500 ng",2.1696
"MPZ-GFP: myelin protein zero with a C-terminal monomeric EGFP, expressed from plasmid (protein, left off: monomeric EGFP, C-terminal, kept, myelin protein zero with a C-terminal monomeric EGFP, expressed from plasmid) IVVYTDREVHGAVGSRVTLHCSFWSSEWVSDDISFTWRYQPEGGRDAISIFHYAKGQPYIDEVGTFKERIQWVGDPRWKDGSIVIHNLDYSDNGTFTCDVKNPPDIVGKTSQVTLYVFEKVPTRYGVVLGAVIGGVLGVVLLLLLLFYVVRYCWLRRQAALQRRLSAMEKGKLHKPGKDASKRGRQTPVLYAMLDHSRSTKAVSEKKAKGLGESRKDKK",fraction of DR5 IP'ed,DR5; run 2018-02-27,0.1051
same,fraction of DR5 IP'ed,"DR5; sheet 2019-12-12, replicate 2",0.0582
same,fraction of DR5 IP'ed,"DR5; sheet 2019-12-12, replicate 3",0.1364
same,DR5 complex proteins in GFP immunoprecipitates,"DR5; HCT116, 24 hr post-transfection","detected DR5, FADD, and caspase 8"
same,fraction IP'ed,DR5; Rep 1 (first series),0.1051
same,fraction IP'ed,DR5; Rep 2 (first series),0.0582
same,fraction IP'ed,DR5; Rep 3 (first series),0.1364
same,% IP'ed,DR5; average of all replicates,9.991%
same,"fraction IP'ed, average",DR5; average of all replicates,0.09991
same,beads (*diluton factor),DR5; Rep 1 (first series),1453332
same,beads (*diluton factor),DR5; Rep 2 (first series),11158310
same,beads (*diluton factor),DR5; Rep 3 (first series),12501020
same,input (*dilution factor),DR5; Rep 1 (first series),13824070
same,input (*dilution factor),DR5; Rep 2 (first series),191711370
same,input (*dilution factor),DR5; Rep 3 (first series),91647520
same,Mean ± SEM (fraction IP'ed),"DR5; unpaired t test sheet, GFP n=5, MPZ n=3, INS n=2, RHO n=2","0.09991 ± 0.02272, n=3"
same,95% confidence interval (difference between means),"DR5; vs. GFP, fraction IP'ed",0.04255 to 0.1369
same,Difference between means,"DR5; vs. GFP, fraction IP'ed, ± SEM",0.0897 ± 0.01927
